The Human Domainome abundance scans (Beltran et al. 2025)

B1: Protein maelstrom homolog, residues 3 to 71; numbered along this chain, Q96JY0 (parent)
chain: NRKASRNAYYFFVQEKIPELRRRGLPVARVADAIPYCSSDWALLREEEKEKYAEMAREWRAAQGKDPGP

Variants of: B1
Assay: abundance fitness (aPCA) (normalised: wild type 0, dead -1); higher = more abundant; growth selection in yeast, the domain comes from the species named
Conditions: Homo sapiens

Abundance fitness: each site, then its substitutions
N7: H -0.267 | Q -0.147 | I -0.355 | P -0.285 | A -0.993 | F -0.233 | T 0 | W -0.257 | K -0.05 | V -0.535 | C -0.497 | Y -0.44 | D 0.212 | M 0.015 | S 0.045 | L -0.168 | G 0.01
Y10: S -0.552 | I -0.657 | R -0.358 | M -0.361 | N 0.15 | Q -0.254 | W -0.175 | E -0.065 | G -0.5 | F 0.085 | L -0.332 | T -0.427 | D 0.185 | V -0.498 | K -0.454 | C -0.643 | P -1.07 | A -0.403
R6: P -0.179 | T 0.109 | V -0.467 | Q -0.447 | S -0.228 | A -0.097 | L 0.046 | C -0.123 | M -0.064 | Y -0.175 | K -0.419 | E 0.061
Y9: D -0.185 | V -0.222 | C -0.289 | I -0.09 | N -0.168 | E 0.001 | F 0.18 | M 0.026 | Q -0.033 | A -0.53 | G -0.61 | K -0.037 | L -0.007 | S -0.513 | W -0.242 | R -0.239 | H -0.137 | P -0.338 | T -0.615
A4: K -0.095 | G 0.032 | C -0.395 | P -0.246 | V -0.001 | L 0.048 | M -0.011 | N -0.371 | S 0 | T 0.049 | D -0.462 | W -0.262 | E 0.159 | H -1.04 | R -0.09
F11: M -0.072 | G -0.694 | N -0.512 | V -0.502 | Y -0.036 | T -0.38 | P -0.776 | S -0.526 | A -0.265 | Q -0.328 | W -0.371 | R -0.674 | D -0.705 | L -0.322 | K -0.94 | I -0.398 | C -0.313 | H -0.107
Q14: V -0.265 | G -0.303 | T -0.186 | A -0.171 | D 0.054 | M -0.023 | P -0.724 | C -0.148 | S -0.196 | I -0.228 | F -0.299 | W -0.014 | Y -0.145 | L -0.079 | R -0.074 | H -0.618 | E 0.135
V13: I -0.375 | F -0.532 | G -0.797 | L -0.32
R23: H -0.467
R2: S 0.091 | T 0.126 | Y 0.078 | L -0.013 | I 0.162 | K 0.045 | N -0.2 | G 0.021 | W -0.141 | D 0.122 | E 0.124 | V -0.288 | F -0.095 | P 0.06 | M 0.093 | A -0.407 | C 0.123 | H 0.058
K16: W -0.819 | N 0.082 | G -0.673 | T -0.375 | V -0.41 | Q -0.028 | F -0.555 | A -0.096 | C -0.428 | Y -0.697 | R 0.031 | S -0.141 | M -0.041
S5: G -0.03 | R -0.228 | Y -0.36 | D 0.12 | I 0.278 | Q -0.088 | M -0.118 | K -0.206 | C -0.655 | E 0.137 | P -0.24 | A 0.013 | L -0.593 | V -0.087 | T -0.202
